Results: PMC8121154, “The effects of pH and NaCl concentration on the structure of β‐casein from buffalo milk” (Food Science & Nutrition, 2021)

Molecular target: the molecule itself
Assay: dynamic light scattering; purified β‐CN in 10 mM sodium phosphate buffer at pH 5.5 and pH 5.0, room temperature; aggregates, micelles of 100 nm at pH 5.0

B1: native β‐casein purified from buffalo milk (natural protein, buffalo (purified from buffalo milk), UniProt Q9TSI0 16-224, looked up)
chain: RELEELNVPGEIVESLSSSEESITHINKKIEKFQSEEQQQMEDELQDKIHPFAQTQSLVYPFPGPIPKSLPQNIPPLTQTPVVVPPFLQPEIMGVSKVKEAMAPKHKEMPFPKYPVEPFTESQSLTLTDVENLHLPLPLLQSWMHQPPQPLPPTVMFPPQSVLSLSQSKVLPVPQKAVPYPQRDMPIQAFLLYQEPVLGPVRGPFPIIV
notes: β‐casein of buffalo milk (water buffalo), native protein purified from milk; single band of approximately 25 kDa on SDS-PAGE; Native milk protein; also called β‐CN; buffalo β‐CN
- binding result: binds
